For this test, the target named is EZH2 (endogenous) (human (endogenous in MDA-MB-231, …, UniProt Q15910 1-746)). Description: co-IP.

Results on one molecule are retold here after paper PMC5786281 (Oncogene, 2017).

Sequence of EZH2 (endogenous) (human (Q15910 whole entry): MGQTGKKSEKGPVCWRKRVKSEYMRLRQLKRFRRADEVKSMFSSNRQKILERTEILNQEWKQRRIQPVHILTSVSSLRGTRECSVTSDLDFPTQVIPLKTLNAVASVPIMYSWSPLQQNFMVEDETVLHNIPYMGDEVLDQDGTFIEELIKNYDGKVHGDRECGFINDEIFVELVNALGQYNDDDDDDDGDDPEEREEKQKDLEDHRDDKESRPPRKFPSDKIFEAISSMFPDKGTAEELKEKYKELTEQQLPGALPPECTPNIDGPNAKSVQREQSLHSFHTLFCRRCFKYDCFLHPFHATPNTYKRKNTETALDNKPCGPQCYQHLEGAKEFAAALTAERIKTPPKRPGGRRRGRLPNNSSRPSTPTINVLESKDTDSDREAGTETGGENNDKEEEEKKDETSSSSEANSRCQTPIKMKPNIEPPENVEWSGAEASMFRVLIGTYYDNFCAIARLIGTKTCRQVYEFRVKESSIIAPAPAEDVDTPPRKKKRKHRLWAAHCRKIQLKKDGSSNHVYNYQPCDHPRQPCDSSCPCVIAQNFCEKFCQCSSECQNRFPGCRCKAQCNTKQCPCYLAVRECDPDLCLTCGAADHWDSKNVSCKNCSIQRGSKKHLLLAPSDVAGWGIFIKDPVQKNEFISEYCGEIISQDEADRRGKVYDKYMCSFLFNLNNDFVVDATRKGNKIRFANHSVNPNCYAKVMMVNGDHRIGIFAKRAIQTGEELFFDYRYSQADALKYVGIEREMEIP

B1: EED (endogenous) (natural protein)
chain: not shown
As for B1, the “fold binding with PARPi against without PARPi” value was roughly 4.4 times.
